In patent US20220177604A1:

target: recombinant Motavizumab human IgE (rMota-hIgE) (human) (UniProt P01854); assay: hIgE binding ELISA
Sequence (P01854 other isoform, or with tags, fused parts or gaps limits assumed, form in doubt): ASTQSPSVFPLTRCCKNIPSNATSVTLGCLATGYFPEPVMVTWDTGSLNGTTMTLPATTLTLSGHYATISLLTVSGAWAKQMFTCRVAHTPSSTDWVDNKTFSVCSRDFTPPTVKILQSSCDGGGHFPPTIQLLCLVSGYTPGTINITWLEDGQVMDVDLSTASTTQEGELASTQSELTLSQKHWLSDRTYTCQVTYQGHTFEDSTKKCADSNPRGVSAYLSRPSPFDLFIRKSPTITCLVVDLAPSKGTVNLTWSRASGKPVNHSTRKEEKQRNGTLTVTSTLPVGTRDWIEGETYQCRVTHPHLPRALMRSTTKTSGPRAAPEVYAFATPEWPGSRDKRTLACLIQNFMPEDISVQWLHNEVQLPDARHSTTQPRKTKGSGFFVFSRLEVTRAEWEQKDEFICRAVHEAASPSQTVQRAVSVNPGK

| Binder | Ratio OD450 pH 7.4/pH 6 |
| --- | --- |
| CL-2C mAb 28 (antibody, V domains shown) VH: QVQLVQSGAEVMKPGSSVKVSCKASGYTFSWYHLEWVRQAPGHGLEWMGEIDPGTFTTNYNEKFKARVTFTADTSTSTAYMELSSLRSEDTAVYYCARFSHFSGSHYDYFDYWGQGTLVTVSS VL: EIVMTQSPATLSVSPGERATLSCRASQSIGTNIHWYQQKPGQAPRLLIYHASESISGIPARFSGSGSGTEFTLTISSLQSEDFAVYYCQQSWSWPTTFGGGTKVEIK | 5.54 |
| CL-2C mAb 30 (antibody, V domains shown) VH: QVQLVQSGAEVMKPGSSVKVSCKASGYTFSWYWLEWVRQAPGHGLEWMGEIDPGTFTTNYNEKFKARVTFTADTSTSTAYMELSSLRSEDTAVYYCARFSHFSGSNYDYFDYWGQGTLVTVSS VL: EIVMTQSPATLSVSPGERATLSCRASQSIGTNIHWYQQKPGQAPRLLIYHASESISGIPARFSGSGSGTEFTLTISSLQSEDFAVYYCQQSWSWPTTFGGGTKVEIK | 14 |
| CL-2C mAb 35 (antibody, V domains shown) VH: QVQLVQSGAEVMKPGSSVKVSCKASGYTFSWYWLEWVRQAPGHGLEWMGEIDPGTFTTNYNEKFKARVTFTADTSTSTAYMELSSLRSEDTAVYYCARFSHFSGSNYDYFDYWGQGTLVTVSS VL: EIVMTQSPATLSVSPGERATLSCRASQSIGTNIHWYQQKPGQAPRLLIYYASESISGIPARFSGSGSGTEFTLTISSLQSEDFAVYYCQQSWSHPTTFGGGTKVEIK | 0.69 |
| CL-2C mAb 33 (antibody, V domains shown) VH: QVQLVQSGAEVMKPGSSVKVSCKASGYTFSWYHLEWVRQAPGHGLEWMGEIDPGTFTTNYNEKFKARVTFTADTSTSTAYMELSSLRSEDTAVYYCARFSHFSGSHYDYFDYWGQGTLVTVSS VL: EIVMTQSPATLSVSPGERATLSCRASQSIGTNIHWYQQKPGQAPRLLIYYASESISGIPARFSGSGSGTEFTLTISSLQSEDFAVYYCQQSWSHPTTFGGGTKVEIK | 2.61 |

Now from value to binder:

| Ratio OD450 pH 7.4/pH 6 | Binder |
| --- | --- |
| 5.5 | CL-2C mAb 34 (antibody, V domains shown) VH: QVQLVQSGAEVMKPGSSVKVSCKASGYTFSWYHLEWVRQAPGHGLEWMGEIDPGTFTTNYNEKFKARVTFTADTSTSTAYMELSSLRSEDTAVYYCARFSHFSGHNYDYFDYWGQGTLVTVSS VL: EIVMTQSPATLSVSPGERATLSCRASQSIGTNIHWYQQKPGQAPRLLIYYASESISGIPARFSGSGSGTEFTLTISSLQSEDFAVYYCQQSWSHPTTFGGGTKVEIK |
| 15.3 | CL-2C mAb 29 (antibody, V domains shown) VH: QVQLVQSGAEVMKPGSSVKVSCKASGYTFSWYHLEWVRQAPGHGLEWMGEIDPGTFTTNYNEKFKARVTFTADTSTSTAYMELSSLRSEDTAVYYCARFSHFSGHNYDYFDYWGQGTLVTVSS VL: EIVMTQSPATLSVSPGERATLSCRASQSIGTNIHWYQQKPGQAPRLLIYHASESISGIPARFSGSGSGTEFTLTISSLQSEDFAVYYCQQSWSWPTTFGGGTKVEIK |
| 10.9 | CL-2C mAb 31 (antibody, V domains shown) VH: QVQLVQSGAEVMKPGSSVKVSCKASGYTFSWYWLEWVRQAPGHGLEWMGEIDPGTFTTHYNEKFKARVTFTADTSTSTAYMELSSLRSEDTAVYYCARFSHFSGSHYDYFDYWGQGTLVTVSS VL: EIVMTQSPATLSVSPGERATLSCRASQSIGTNIHWYQQKPGQAPRLLIYYASESISGIPARFSGSGSGTEFTLTISSLQSEDFAVYYCQQSWSHPTTFGGGTKVEIK |
| 4.13 | CL-2C mAb 32 (antibody, V domains shown) VH: QVQLVQSGAEVMKPGSSVKVSCKASGYTFSWYHLEWVRQAPGHGLEWMGEIDPGTFTTNYNEKFKARVTFTADTSTSTAYMELSSLRSEDTAVYYCARFSHFSGSNHDYFDYWGQGTLVTVSS VL: EIVMTQSPATLSVSPGERATLSCRASQSIGTNIHWYQQKPGQAPRLLIYYASESISGIPARFSGSGSGTEFTLTISSLQSEDFAVYYCQQSWSHPTTFGGGTKVEIK |
